Laboratory results as given in patent US20250215411A1, “FUSION PROTEINS AND USES THEREOF” (priority 2022, published 2025).

Key:
αvβ3 integrin = αvβ3 integrin (Homo sapiens, UniProt P05106+P06756); conditions: cited from earlier work
αvβ5 integrin = αvβ5 integrin (Homo sapiens, UniProt P06756+P18084); conditions: cited from earlier work
α5β1 integrin = α5β1 integrin (Homo sapiens, UniProt P05556+P08648); conditions: cited from earlier work
αvβ6 integrin = αvβ6 integrin (Homo sapiens, UniProt P06756+P18564); conditions: cited from earlier work
[1] = test system: 5637, RT112, RT4, U87, MDA-MB-468 cancer cell lines; assay: Cell viability assay (MTT), cancer cell lines; format: cell-based, human
Description: (§1) Cultured cell lines (5×10^3 cells/well) were seeded in 96 wells plates and incubated for 72 h with various amounts of RGD-SAP or CYS-SAP at 37° C., 5% CO2. Cell viability was then quantified by 3-(4,5-dimethylthiazol-2-yl)-2,5-diphenyltetrazolium bromide staining (MTT) (working solution 0.5 μg/ml). After 1 h of incubation, the supernatants were removed, the formazan crystals were dissolved with dimethyl sulfoxide and the absorbance at 570 nm was measured using a microtiter plate reader. Competitive experiments were performed as described above using 100 nM of RGD-SAP or 1000 nM of CYS-SAP in the presence of 5000 nM of ACDCRGDCFCG peptide for 48 and 72 hours.
(§2) Cultured cell lines (5×10^3 cells/well) were seeded in 96 wells plates and incubated for 72 h with various amounts of NGR-SAP, RGD-SAP, CgA-SAP, CYS-SAP, ATF-SAP or seed SAP at 37° C., 5% CO2. Cell viability was then quantified by 3-(4,5-dimethylthiazol-2-yl)-2,5-diphenyltetrazolium bromide staining (MTT) (working solution 0.5 μg/ml). After 1 h of incubation, the supernatants were removed, the formazan crystals were dissolved with dimethyl sulfoxide and the absorbance at 570 nm was measured using a microtiter plate reader.

normal fibroblasts = assay: Cell viability assay (MTT), normal fibroblasts; format: cell-based; conditions: 72 h
Description: as §1, §2

[2] = test system: 5637 bladder cancer cells; assay: MTT competition experiment with free RGD-4C peptide; format: cell-based, human; conditions: 0.1 μM RGD-SAP or 1 μM CYS-SAP, 5 μM peptide, 48 and 72 h
Description: as §1

[3] = test system: caspase 3 in 5637 and MDA-MB-468 cells; assay: Caspase 3 activation (western blot); format: cell-based, human; conditions: 30 nM, 48 and 72 h
Description: Cells were washed twice with cold PBS, collected by scraping and centrifuged 5 min at 300 g. Cells were lysed for 30 min on ice in ice-cold buffer (50 mM Tris-HCl, pH 7.5, containing 150 mM NaCl, 2 mM NaF, 1 mM EDTA, 1 mM EGTA, 1 mM Na3VO4, 1 mM PMSF, 75 mU/ml aprotinin (Sigma-Aldrich), 1% TritonX-100 and a proteinase inhibitor Cocktail® (Sigma-Aldrich). Cell lysates were centrifuged at 10000×g at 4° C. for 10 min and the supernatants were recovered and quantified for total protein content. Equal amounts of cell protein extracts were separated by SDS-PAGE under reducing conditions unless stated otherwise. For western blot analysis, proteins were transferred onto a nitrocellulose membrane, incubated with 5% non-fat powdered milk in TBS-T (0.5% Tween-20) for 1 hour and then with the following antibodies: anti-saporin anti-serum (rabbit, 1:5000), anti-caspase 3 (rabbit, 1:2000, clone E87, Abcam), anti-beta actin (mouse, 1:10000, clone AC-15, Sigma-Aldrich). The antibody binding was detected using a secondary horseradish peroxidase conjugated antibodies (donkey anti-mouse/rabbit IgG HRP-linked, GE Healthcare) and an enhanced chemiluminescent (ECL, Merck Millipore).
To induce caspase 3 activation, cells were treated with 30 nM RGD-SAP or 2 mM DTT for 48 and 72 hours.

subcutaneous MB49 tumors = assay: Subcutaneous syngeneic bladder cancer mouse model; format: in vivo, C57BL/6 mice
From the text: (§3) Studies on animal models were approved by the Institutional Animal Care and Use Committee (Institutional Animal Care and Use Committee, IACUC) and performed according to the prescribed guidelines. C57BL/6 female mice (7 weeks old, Charles River, Calco, Italy) were challenged with subcutaneous injection in the left flank of 3-5×10^5 MB49 living cells; 5 days later, 4-6 mice/group were intravenously administered with various doses of RGD-SAP or CYS-SAP diluted in sodium chloride (0.9%, i.v., 200 μl). Tumor growth was estimated by calculating the volume using the formula r1×r2×r3×4/3 π, where r1 and r2 are the longitudinal and lateral radii, and r3 is the thickness of tumors protruding from the surface of normal skin. Animals were euthanized when tumors reached 10 mm in diameter, became ulcerated or a 15% animal body weight loss was measured.

[4] = Toxicity in the subcutaneous model (body weight, injection site, serum biochemical parameters); format: in vivo, C57BL/6 mice
From the text: as §3
Blood samples were collected from the retroorbital plexus of anesthetized mice using 4% isoflurane at the end of each experiment or before animal sacrifice. Blood samples were left at room temperature for at least 30 min before being processed and then centrifuged (800×g, 10 min) for serum separation. Serum albumin, aspartate transaminase, alanine transaminase, creatinine and urea were determined by using an automated analyzer (ScilVet ABC plus and Idexx Procyte analyzers) according to the manufacturers' instructions. Standard controls were run before each determination.

Sequence of αvβ6 integrin (P06756 31-1048): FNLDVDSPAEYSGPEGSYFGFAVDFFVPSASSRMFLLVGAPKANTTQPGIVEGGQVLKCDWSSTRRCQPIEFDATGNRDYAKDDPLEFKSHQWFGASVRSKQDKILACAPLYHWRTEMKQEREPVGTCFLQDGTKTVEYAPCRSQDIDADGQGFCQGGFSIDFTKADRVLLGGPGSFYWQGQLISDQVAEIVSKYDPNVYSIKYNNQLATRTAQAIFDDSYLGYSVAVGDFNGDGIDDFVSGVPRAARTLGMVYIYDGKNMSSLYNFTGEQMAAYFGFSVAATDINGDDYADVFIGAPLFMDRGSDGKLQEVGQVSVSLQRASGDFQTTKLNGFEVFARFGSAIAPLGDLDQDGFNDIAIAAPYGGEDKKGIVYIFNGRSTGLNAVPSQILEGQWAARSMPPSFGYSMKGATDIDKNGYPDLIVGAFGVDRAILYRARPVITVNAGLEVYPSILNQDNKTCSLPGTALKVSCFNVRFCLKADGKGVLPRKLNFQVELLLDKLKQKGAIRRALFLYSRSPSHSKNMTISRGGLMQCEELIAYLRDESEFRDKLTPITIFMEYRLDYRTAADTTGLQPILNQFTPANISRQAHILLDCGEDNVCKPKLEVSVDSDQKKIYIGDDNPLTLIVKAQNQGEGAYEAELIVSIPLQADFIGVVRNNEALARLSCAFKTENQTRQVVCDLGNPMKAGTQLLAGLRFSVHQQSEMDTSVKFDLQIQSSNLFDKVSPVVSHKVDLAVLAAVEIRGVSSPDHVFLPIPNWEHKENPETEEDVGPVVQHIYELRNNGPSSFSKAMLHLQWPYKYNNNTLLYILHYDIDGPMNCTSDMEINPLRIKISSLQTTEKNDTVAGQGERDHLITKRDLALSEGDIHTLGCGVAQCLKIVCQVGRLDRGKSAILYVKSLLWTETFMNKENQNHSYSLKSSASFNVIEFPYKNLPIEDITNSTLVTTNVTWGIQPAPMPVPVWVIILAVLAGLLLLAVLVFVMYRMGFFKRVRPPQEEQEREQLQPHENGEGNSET
Sequence of αvβ6 integrin (P18564 22-788): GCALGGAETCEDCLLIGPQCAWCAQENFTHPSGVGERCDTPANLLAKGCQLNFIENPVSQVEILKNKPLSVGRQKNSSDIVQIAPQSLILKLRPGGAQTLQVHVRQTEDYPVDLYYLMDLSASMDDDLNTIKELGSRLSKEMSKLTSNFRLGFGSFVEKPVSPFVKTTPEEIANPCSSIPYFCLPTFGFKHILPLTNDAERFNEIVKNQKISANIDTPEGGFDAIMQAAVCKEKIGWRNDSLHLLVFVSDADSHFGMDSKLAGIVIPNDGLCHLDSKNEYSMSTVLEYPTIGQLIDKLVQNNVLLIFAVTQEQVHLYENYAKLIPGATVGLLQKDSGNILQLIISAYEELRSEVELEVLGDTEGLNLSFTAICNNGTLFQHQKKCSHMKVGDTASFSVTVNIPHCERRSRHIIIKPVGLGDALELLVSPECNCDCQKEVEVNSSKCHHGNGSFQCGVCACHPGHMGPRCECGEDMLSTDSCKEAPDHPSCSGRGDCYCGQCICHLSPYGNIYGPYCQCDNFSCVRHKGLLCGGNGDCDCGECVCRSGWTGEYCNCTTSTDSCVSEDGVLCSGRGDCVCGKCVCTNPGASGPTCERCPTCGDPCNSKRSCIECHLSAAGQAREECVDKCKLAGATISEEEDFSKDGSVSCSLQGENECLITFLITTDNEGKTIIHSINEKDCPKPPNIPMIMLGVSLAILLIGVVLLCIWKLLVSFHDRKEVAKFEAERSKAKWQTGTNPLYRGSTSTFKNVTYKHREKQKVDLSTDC
Sequence of αvβ5 integrin (P06756 31-1048): as the sequence (P06756 31-1048) above
Sequence of αvβ5 integrin (P18084 24-799): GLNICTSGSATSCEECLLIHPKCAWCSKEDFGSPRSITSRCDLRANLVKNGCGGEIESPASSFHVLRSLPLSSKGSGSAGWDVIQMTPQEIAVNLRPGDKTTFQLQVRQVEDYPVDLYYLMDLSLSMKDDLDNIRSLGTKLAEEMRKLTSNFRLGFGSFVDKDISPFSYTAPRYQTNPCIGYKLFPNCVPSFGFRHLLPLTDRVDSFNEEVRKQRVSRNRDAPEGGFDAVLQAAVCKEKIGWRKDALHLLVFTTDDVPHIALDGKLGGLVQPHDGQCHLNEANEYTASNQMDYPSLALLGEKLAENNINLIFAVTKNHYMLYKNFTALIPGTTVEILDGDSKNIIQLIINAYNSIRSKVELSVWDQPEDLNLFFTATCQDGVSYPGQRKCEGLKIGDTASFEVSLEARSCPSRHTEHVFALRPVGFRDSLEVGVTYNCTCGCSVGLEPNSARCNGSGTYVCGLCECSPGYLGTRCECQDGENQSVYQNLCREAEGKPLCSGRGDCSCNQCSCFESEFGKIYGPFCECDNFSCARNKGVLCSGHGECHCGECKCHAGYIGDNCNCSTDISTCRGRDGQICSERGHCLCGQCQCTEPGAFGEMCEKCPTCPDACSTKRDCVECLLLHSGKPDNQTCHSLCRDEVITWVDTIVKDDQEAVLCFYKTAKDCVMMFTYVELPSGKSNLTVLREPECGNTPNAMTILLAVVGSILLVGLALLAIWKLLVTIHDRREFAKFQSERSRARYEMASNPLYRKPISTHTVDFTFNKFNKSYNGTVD
Sequence of αvβ3 integrin (P06756 31-1048): as the sequence (P06756 31-1048) above
Sequence of αvβ3 integrin (P05106 27-788): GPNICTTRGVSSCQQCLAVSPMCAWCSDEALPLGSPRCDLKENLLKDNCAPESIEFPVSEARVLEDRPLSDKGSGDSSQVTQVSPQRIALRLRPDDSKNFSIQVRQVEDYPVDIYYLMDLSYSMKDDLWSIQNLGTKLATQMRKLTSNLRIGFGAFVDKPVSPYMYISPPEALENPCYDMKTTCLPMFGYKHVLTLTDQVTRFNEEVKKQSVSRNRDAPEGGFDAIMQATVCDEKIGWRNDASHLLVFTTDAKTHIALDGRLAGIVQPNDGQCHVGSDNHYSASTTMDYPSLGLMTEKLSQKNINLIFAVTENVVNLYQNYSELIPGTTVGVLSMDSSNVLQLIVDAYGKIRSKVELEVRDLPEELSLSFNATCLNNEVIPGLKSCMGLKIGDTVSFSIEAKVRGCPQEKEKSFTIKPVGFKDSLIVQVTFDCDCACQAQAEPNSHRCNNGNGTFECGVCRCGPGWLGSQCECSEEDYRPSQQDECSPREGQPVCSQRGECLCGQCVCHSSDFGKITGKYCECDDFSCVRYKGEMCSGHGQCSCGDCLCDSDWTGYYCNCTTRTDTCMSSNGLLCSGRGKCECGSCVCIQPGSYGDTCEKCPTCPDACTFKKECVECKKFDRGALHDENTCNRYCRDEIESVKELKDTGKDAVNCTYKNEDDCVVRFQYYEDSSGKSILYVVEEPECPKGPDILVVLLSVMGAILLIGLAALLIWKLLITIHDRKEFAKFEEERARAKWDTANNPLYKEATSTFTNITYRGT

Molecule	affinity value (αvβ3 integrin) [nM]	affinity value (αvβ5 integrin) [nM]	affinity value (α5β1 integrin) [nM]	affinity value (αvβ6 integrin) [nM]	cytotoxic effect compared to CYS-SAP ([1]; MTT, 72 h, all cancer cells)	sensitivity of U87 cells compared with the other cell lines ([1]; U87, highest amount of αvβ3)	cytotoxic effect compared to CYS-SAP (normal fibroblasts)	effect of excess free RGD-4C peptide on cytotoxic activity [2]	caspase 3 activation [3]	effect on tumor growth (subcutaneous MB49 tumors; 0.25 mg/kg i.v., days 5, 10, 15)	effect on tumor growth (subcutaneous MB49 tumors; 0.5 mg/kg i.v., days 5, 10, 15)	effect on tumor growth (subcutaneous MB49 tumors; 0.75 mg/kg i.v., days 5, 10, 15)	survival, hazard ratio versus vehicle (subcutaneous MB49 tumors; 0.75 mg/kg, Mantel-Cox log-rank, 95% CI 1.19-23.10)	complete tumor eradication (subcutaneous MB49 tumors; 1 mg/kg i.v., end of experiment day 19, n=4)	effect on tumor growth (subcutaneous MB49 tumors; 1 mg/kg i.v., three times every five days from day 5)	serum AST and CHE versus vehicle ([4]; 1 mg/kg)	body weight ([4]; 1 mg/kg i.v., day 19)	injection site reaction ([4]; 1 mg/kg i.v., tails)	systemic toxicity (liver and kidney serum parameters) ([4]; 0.25-1 mg/kg)	body weight ([4]; 0.75 and 0.5 mg/kg i.v., days 5, 10, 15)
RGD-4C: ACDCRGDCFCG peptide (SEQ ID NO: 2), an αv-integrin ligand	8.3	46	244	380																
RGD-SAP: RGD-4C (ACDCRGDCFCG) fused via GGSSRSS linker to N-terminus of saporin, C-terminal VDK and 6xHis tag; SEQ ID NO: 6 (protein) ACDCRGDCFCGGGSSRSSVTSITLDLVNPTAGQYSSFVDKIRNNVKDPNLKYGGTDIAVIGPPSKEKFLRINFQSSRGTVSLGLKRDNLYVVAYLAMDNTNVNRAYYFKSEITSAELTALFPEATTANQKALEYTEDYQSIEKNAQITQGDKSRKELGLGIDLLLTFMEAVNKKARVVKNEARFLLIAIQMTAEVARFRYIQNLVTKNFPNKFDSDNKVIQFEVSWRKISTAIYGDAKNGVFNKDYDFGFGKVRQVKDLQMGLLMYLGKPKVDKHHHHHH					stronger cytotoxic effect	most sensitive	but not with normal fibroblasts	significantly decreased the activity	caspase 3 activation was detectable as cleaved form	but not 0.25 mg/kg	significant delay of tumor growth	significant delay of tumor growth	5.25	1 tumor undetectable and complete eradication in one mouse	marked reduction of the tumor volume in all mice	significantly higher values	loss of body weight	severe necrosis in the tails	dose dependent and apparent only with the highest dose used	without causing loss of body weight
